From publication PMC5797146 (Scientific Reports, 2018) come the findings set out here.

Substitutions are numbered along the chain they refer to. In names and notes the source's numbering stands.

This test deals with T1, Clostridium difficile toxin A (Clostridioides difficile …, UniProt P16154).
T1 construct: also called TcdA
Nature of the test: SPR. Particulars: both partners purified.

B1: A26.8 VHH Q101K (VHH)
VHH: QVKLEESGGGLVQAGGSLRLSCAASERTFSRYPVAWFRQAPGAEREFVAVISSTGTSTYYADSVKGRFTISRDNAKVTVYLQMNNLKREDTAVYFCAVNSKRTRLQDPNEYDYWGQGTQVTVSS
notes: source: E. coli TG1, periplasmic extract, purified (IMAC, SEC)
What is called Kd is the constant that tells how readily two partners part at equilibrium. Higher therefore signals lower affinity. The koff is the first-order rate constant of dissociation. High values mean fast dissociation, low ones slow dissociation. For orientation: kon means a measure of how fast the partners come together. Read a high kon as fast association. In the case of B1, the Kd is 7.6 nM, the koff worked out at 0.02 s⁻¹ and the kon turned out to be 2.7e+06 M⁻¹ s⁻¹.

B2: A26.8 VHH S53R (VHH)
VHH: B1 VHH with S53R, K101Q
notes: as for B1
B2 gave a Kd of 224 nM.

B3: A26.8 VHH Q101K, T103R (VHH)
VHH: B1 VHH with T103R
notes: as for B1
Consider B3, for which the Kd came out at 4.2 nM, the koff came to 0.023 s⁻¹ and the kon came out at 5.5e+06 M⁻¹ s⁻¹.

B4: A26.8 VHH Q106Y (VHH)
VHH: B1 VHH with K101Q, Q106Y
notes: as for B1
As for B4, binding was characterised by a dissociation constant (Kd) of 2320 nM.

B5: A26.8 VHH T54W (VHH)
VHH: B1 VHH with T54W, K101Q
notes: as for B1
Regarding B5, binding was put at a Kd of 35 nM, the koff came out at 0.056 s⁻¹ and the kon turned out to be 1.6e+06 M⁻¹ s⁻¹.

B6: A26.8 VHH T103M (VHH)
VHH: B1 VHH with K101Q, T103M
notes: as for B1
Molecule B6 gave a Kd of 13.7 nM, a dissociation rate constant (koff) of 0.024 s⁻¹ and a kon of 1.8e+06 M⁻¹ s⁻¹.

B7: A26.8 VHH T103W (VHH)
VHH: B1 VHH with K101Q, T103W
notes: as for B1
The molecule B7 had a Kd of 16.3 nM, a koff of 0.036 s⁻¹ and a kon of 2.4e+06 M⁻¹ s⁻¹.

B8: A26.8 VHH Q101K, T103M (VHH)
VHH: B1 VHH with T103M
notes: as for B1
For the molecule B8, the Kd amounted to 8 nM, the koff turned out to be 0.027 s⁻¹ and the kon turned out to be 3.3e+06 M⁻¹ s⁻¹.

B9: A26.8 VHH D107Y (VHH)
VHH: B1 VHH with K101Q, D107Y
notes: as for B1
B9 gave an equilibrium dissociation constant (Kd) of 44 nM, a koff of 0.071 s⁻¹ and a kon of 1.6e+06 M⁻¹ s⁻¹.

B10: A26.8 VHH D107R (VHH)
VHH: B1 VHH with K101Q, D107R
notes: as for B1
In the case of B10, the Kd stood at 19 nM, the koff was 0.026 s⁻¹ and the kon amounted to 1.4e+06 M⁻¹ s⁻¹.

B11: A26.8 VHH T56R, Q101K, T103M (VHH)
VHH: B1 VHH with T56R, T103M
notes: as for B1
Take B11: binding was put at a Kd of 2.9 nM, the koff stood at 0.03 s⁻¹ and the kon was determined as 1.04e+07 M⁻¹ s⁻¹.

B12: A26.8 VHH T56R, T103M (VHH)
VHH: B1 VHH with T56R, K101Q, T103M
notes: as for B1
With B12, the Kd was determined as 4.8 nM, the koff came out at 0.03 s⁻¹ and the on-rate (kon) worked out at 6.4e+06 M⁻¹ s⁻¹.

B13: A26.8 VHH N109R (VHH)
VHH: B1 VHH with K101Q, N109R
notes: as for B1
B13 showed a Kd of 13.9 nM, a koff of 0.027 s⁻¹ and a kon of 2e+06 M⁻¹ s⁻¹.

B14: A26.8 VHH T56R, T103K (VHH)
VHH: B1 VHH with T56R, K101Q, T103K
notes: as for B1
Regarding B14, the affinity, expressed as Kd, was 3.4 nM; the koff was determined as 0.029 s⁻¹; the kon was determined as 8.6e+06 M⁻¹ s⁻¹.

B15: A26.8 VHH T103R (VHH)
VHH: B1 VHH with K101Q, T103R
notes: as for B1
As to B15, the affinity, expressed as Kd, was 5.3 nM; the koff came to 0.014 s⁻¹; the kon turned out to be 2.7e+06 M⁻¹ s⁻¹.

B16: A26.8 VHH T56R, Q101K (VHH)
VHH: B1 VHH with T56R
notes: as for B1
B16: the affinity, expressed as Kd, was 4.1 nM; the koff worked out at 0.05 s⁻¹; the kon worked out at 1.24e+07 M⁻¹ s⁻¹.

B17: A26.8 VHH D107N (VHH)
VHH: B1 VHH with K101Q, D107N
notes: as for B1
B17 returned a Kd of 21.3 nM, a koff of 0.04 s⁻¹ and a kon of 1.9e+06 M⁻¹ s⁻¹.

B18: A26.8 VHH T54R (VHH)
VHH: B1 VHH with T54R, K101Q
notes: as for B1
B18 registered a Kd of 13.2 nM, a koff of 0.044 s⁻¹ and an association rate constant (kon) of 3.6e+06 M⁻¹ s⁻¹.

B19: A26.8 VHH T56R, Q101K, T103R (VHH)
VHH: B1 VHH with T56R, T103R
notes: also called lead triple mutant; source: E. coli TG1, periplasmic extract, purified (IMAC, SEC)
For B19, the affinity, expressed as Kd, was 2 nM; the koff came to 0.024 s⁻¹; the association rate constant (kon) came out at 1.23e+07 M⁻¹ s⁻¹.

B20: A26.8 VHH T56R (VHH)
VHH: B1 VHH with T56R, K101Q
notes: as for B1
Turning to B20, the dissociation constant (Kd) was 6.2 nM, the koff is 0.027 s⁻¹ and the kon is 4.8e+06 M⁻¹ s⁻¹.

B21: A26.8 VHH T58K (VHH)
VHH: B1 VHH with T58K, K101Q
notes: as for B1
B21 came in with a Kd of 13.5 nM, a koff of 0.033 s⁻¹ and a kon of 2.5e+06 M⁻¹ s⁻¹.

B22: A26.8 VHH E110Q (VHH)
VHH: B1 VHH with K101Q, E110Q
notes: as for B1
The molecule B22 came in with an equilibrium dissociation constant (Kd) of 33.6 nM, a koff of 0.07 s⁻¹ and a kon of 2.1e+06 M⁻¹ s⁻¹.

B23: A26.8 VHH T56R, T103R (VHH)
VHH: B1 VHH with T56R, K101Q, T103R
notes: also called lead double mutant; source: E. coli TG1, periplasmic extract, purified (IMAC, SEC)
B23 returned a Kd of 2.3 nM, a koff of 0.019 s⁻¹ and a kon of 8.3e+06 M⁻¹ s⁻¹.

B24: A26.8 VHH Q106F (VHH)
VHH: B1 VHH with K101Q, Q106F
notes: as for B1
B24: the Kd is 5130 nM.

B25: A26.8 VHH Q106L (VHH)
VHH: B1 VHH with K101Q, Q106L
notes: as for B1
Turning to B25, the Kd was 612 nM.

B26: A26.8 VHH T56I (VHH)
VHH: B1 VHH with T56I, K101Q
notes: as for B1
For B26, binding was put at a Kd of 13.6 nM, the koff was 0.026 s⁻¹ and the kon was 1.9e+06 M⁻¹ s⁻¹.

B27: A26.8 VHH Q101K, T103K (VHH)
VHH: B1 VHH with T103K
notes: as for B1
In turn, B27 returned a Kd of 8.2 nM, a koff of 0.04 s⁻¹ and an association rate constant (kon) of 5e+06 M⁻¹ s⁻¹.

B28: A26.8 VHH R104W (VHH)
VHH: B1 VHH with K101Q, R104W
notes: as for B1
In the case of B28, binding was put at a Kd of 165 nM, the koff is 0.055 s⁻¹ and the kon was 300000 M⁻¹ s⁻¹.

B29: A26.8 VHH T54Y (VHH)
VHH: B1 VHH with T54Y, K101Q
notes: as for B1
Consider B29, for which the Kd came to 38.9 nM, the koff was found to be 0.069 s⁻¹ and the kon stood at 1.8e+06 M⁻¹ s⁻¹.

B30: A26.8 VHH T56R, Q101K, T103K (VHH)
VHH: B1 VHH with T56R, T103K
notes: as for B1
B30 displayed a Kd of 3.2 nM, a koff of 0.047 s⁻¹ and a kon of 1.47e+07 M⁻¹ s⁻¹.

B31: A26.8 VHH Q106W (VHH)
VHH: B1 VHH with K101Q, Q106W
notes: as for B1
For B31, the Kd was determined as 1480 nM.

B32: A26.8 VHH T103K (VHH)
VHH: B1 VHH with K101Q, T103K
notes: as for B1
As for B32, the Kd was 8.3 nM, the off-rate constant (koff) turned out to be 0.02 s⁻¹ and the kon was found to be 2.5e+06 M⁻¹ s⁻¹.
